Experimental data: article PMC5513711, “Noroviruses Co-opt the Function of Host Proteins VAPA and VAPB for Replication via a Phenylalanine–Phenylalanine-Acidic-Tract-Motif Mimic in Nonstructural Viral Protein NS1/2” (mBio, 2017)
Like-named read-outs stand apart in the source and are kept apart here.

B1: VAPA fragment (133–226), isolated coiled-coil domain (domain or fragment)
chain: PNENDKLNDMEPSKAVPLNASKQDGPLPKPHSVSLNDTETRKLMEECKRLQGEMMKLSEENRHLRDEGLRLRKVAHSDKPGSTSAVSFRDNVTS
notes: murine VAPA, linker and coiled-coil domain, residues 133-226; also called coiled-coil domain (P133–S226 of VAPA); CCD; source: E. coli, purified
B2: VAPA MSP domain with linker and coiled-coil domain (8–226) (domain or fragment)
chain: MAKHEQILVLDPPSDLKFKGPFTDVVTTNLKLQNPSDRKVCFKVKTTAPRRYCVRPNSGIIDPGSIVTVSVMLQPFDYDPNEKSKHKFMVQTIFAPPNISDMEAVWKEAKPDELMDSKLRCVFEMPNENDKLNDMEPSKAVPLNASKQDGPLPKPHSVSLNDTETRKLMEECKRLQGEMMKLSEENRHLRDEGLRLRKVAHSDKPGSTSAVSFRDNVTS
notes: murine VAPA, MSP domain with linker and coiled-coil domain, residues 8-226; Natural abundance (unlabeled) in the titrations of 15N NS1; also called VAPA (M8–S226 of VAPA); unlabeled VAPA; source: E. coli, purified

Assays:
[1] = target: VAPA (mammalian 2-hybrid construct) (UniProt Q9WV55); test: mammalian 2-hybrid (M2H); conditions: n = 3; for response: parent: est. 170, read off a plot
Sequence of VAPA (mammalian 2-hybrid construct) (Q9WV55 whole entry): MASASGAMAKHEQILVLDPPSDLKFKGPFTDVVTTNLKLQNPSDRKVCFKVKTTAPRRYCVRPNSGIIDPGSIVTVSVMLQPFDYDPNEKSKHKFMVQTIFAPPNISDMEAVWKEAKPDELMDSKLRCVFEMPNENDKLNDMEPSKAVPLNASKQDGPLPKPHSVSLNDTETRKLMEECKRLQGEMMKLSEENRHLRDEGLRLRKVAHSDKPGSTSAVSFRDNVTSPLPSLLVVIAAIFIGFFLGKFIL

[2] = target: NS1/2^MNoV (strain not told; partner of the VAPA mutants in Fig. 4A and 4C); test: mammalian 2-hybrid (M2H); conditions: for response: read off a plot
[3] = target: the molecule itself; test: not stated; VAPA 133-226 in solution; dimeric size, method not given
[4] = target: the molecule itself; test: SEC + other: diffusion NMR; VAPA 8-226 in solution; dimer

Row | Molecule | other: Fold Change [1] | response [1] | other: Fold Change ([2]; n = 3) | response ([2]; n = 3, parent: est. 170) | further results
1 | NS1/2^MNoV of strain CR6 (mammalian 2-hybrid construct) D43A | 1.35 | 40 %fluc/Rluc | – | – | –
2 | NS1/2^MNoV of strain CR6 (mammalian 2-hybrid construct) D43K | 1.07 | 30 %fluc/Rluc | – | – | –
3 | NS1/2^MNoV of strain CR6 (mammalian 2-hybrid construct) D121G | 7.91 | 180 %fluc/Rluc | – | – | –
4 | NS1/2^MNoV of strain CR6 (mammalian 2-hybrid construct) D131G | 7.98 | 180 %fluc/Rluc | – | – | –
5 | NS1/2^MNoV of strain CR6 (mammalian 2-hybrid construct) E40A | 2.13 | 62 %fluc/Rluc | – | – | –
6 | NS1/2^MNoV of strain CR6 (mammalian 2-hybrid construct) E40K | 1.31 | 45 %fluc/Rluc | – | – | –
7 | NS1/2^MNoV of strain CR6 (mammalian 2-hybrid construct) E42A | 1.22 | 30 %fluc/Rluc | – | – | –
8 | NS1/2^MNoV of strain CR6 (mammalian 2-hybrid construct) E42K | 1.04 | 28 %fluc/Rluc | – | – | –
9 | NS1/2^MNoV of strain CR6 (mammalian 2-hybrid construct) E44A | 1.78 | 55 %fluc/Rluc | – | – | –
10 | NS1/2^MNoV of strain CR6 (mammalian 2-hybrid construct) E44K | 0.95 | 30 %fluc/Rluc | – | – | –
11 | NS1/2^MNoV of strain CR6 (mammalian 2-hybrid construct) E52K | 1.63 | 30 %fluc/Rluc | – | – | –
12 | NS1/2^MNoV of strain CR6 (mammalian 2-hybrid construct) E54K | 3.92 | 90 %fluc/Rluc | – | – | –
13 | NS1/2^MNoV of strain CR6 (mammalian 2-hybrid construct) H69L | 8.14 | 180 %fluc/Rluc | – | – | –
14 | NS1/2^MNoV of strain CR6 (mammalian 2-hybrid construct) M48A | 12.8 | 190 %fluc/Rluc | – | – | –
15 | NS1/2^MNoV of strain CR6 (mammalian 2-hybrid construct) M48D | 6.37 | 180 %fluc/Rluc | – | – | –
16 | NS1/2^MNoV of strain CR6 (mammalian 2-hybrid construct) M48G | 11.7 | 250 %fluc/Rluc | – | – | –
17 | NS1/2^MNoV of strain CR6 (mammalian 2-hybrid construct) M48I | 5.16 | 150 %fluc/Rluc | – | – | –
18 | NS1/2^MNoV of strain CR6 (mammalian 2-hybrid construct) M48L | 10.8 | 300 %fluc/Rluc | – | – | –
19 | NS1/2^MNoV of strain CR6 (mammalian 2-hybrid construct) N46C | 7.96 | 220 %fluc/Rluc | – | – | –

Row | Molecule | other: Fold Change [1] | response [1] | other: Fold Change ([2]; n = 3) | response ([2]; n = 3, parent: est. 170) | further results
20 | NS1/2^MNoV of strain CR6 (mammalian 2-hybrid construct) N46D | 10.3 | 290 %fluc/Rluc | – | – | –
21 | NS1/2^MNoV of strain CR6 (mammalian 2-hybrid construct) N46G | 10.8 | 300 %fluc/Rluc | – | – | –
22 | NS1/2^MNoV of strain CR6 (mammalian 2-hybrid construct) S41G | – | 40 %fluc/Rluc | – | – | –
23 | NS1/2^MNoV of strain CR6 (mammalian 2-hybrid construct) T49A | 1.55 | 50 %fluc/Rluc | – | – | –
24 | NS1/2^MNoV of strain CR6 (mammalian 2-hybrid construct) T49G | 1.35 | 30 %fluc/Rluc | – | – | –
25 | NS1/2^MNoV of strain CR6 (mammalian 2-hybrid construct) V45A | 8.72 | 250 %fluc/Rluc | – | – | –
26 | NS1/2^MNoV of strain CR6 (mammalian 2-hybrid construct) V45G | 8.32 | 240 %fluc/Rluc | – | – | –
27 | NS1/2^MNoV of strain CR6 (mammalian 2-hybrid construct) V45I | 5.53 | 100 %fluc/Rluc | – | – | –
28 | NS1/2^MNoV of strain CR6 (mammalian 2-hybrid construct) Y47A | 1.55 | 45 %fluc/Rluc | – | – | –
29 | NS1/2^MNoV of strain CR6 (mammalian 2-hybrid construct) Y47G | 1.25 | 30 %fluc/Rluc | – | – | –
30 | VAPA (mammalian 2-hybrid construct) (from UniProt Q9WV55) C60A | – | – | 3.9 | 61 %fluc/Rluc | –
31 | VAPA (mammalian 2-hybrid construct) (from UniProt Q9WV55) D123A | – | – | 8.18 | 110 %fluc/Rluc | –
32 | VAPA (mammalian 2-hybrid construct) (from UniProt Q9WV55) H195E; R197E | – | – | – | – | other: Fold Change [2]: 3.28; response ([2]; parent: est. 140): 85 %fluc/Rluc
33 | VAPA (mammalian 2-hybrid construct) (from UniProt Q9WV55) K50A | – | – | 3.11 | 69 %fluc/Rluc | –
34 | VAPA (mammalian 2-hybrid construct) (from UniProt Q9WV55) K50E | – | – | 2.26 | 41 %fluc/Rluc | –
35 | VAPA (mammalian 2-hybrid construct) (from UniProt Q9WV55) K50E; K52E | – | – | – | – | other: Fold Change [2]: 1.29; response ([2]; parent: est. 140): 38 %fluc/Rluc
36 | VAPA (mammalian 2-hybrid construct) (from UniProt Q9WV55) K52A | – | – | 1.4 | 35 %fluc/Rluc | –
37 | VAPA (mammalian 2-hybrid construct) (from UniProt Q9WV55) K52E | – | – | 1.38 | 32 %fluc/Rluc | –
38 | VAPA (mammalian 2-hybrid construct) (from UniProt Q9WV55) K94A | – | – | 1.74 | 42 %fluc/Rluc | –

Row | Molecule | other: Fold Change [1] | response [1] | other: Fold Change ([2]; n = 3) | response ([2]; n = 3, parent: est. 170) | further results
39 | VAPA (mammalian 2-hybrid construct) (from UniProt Q9WV55) K94A; M96A | – | – | – | – | other: Fold Change [2]: 0.95; response ([2]; parent: est. 140): 27 %fluc/Rluc
40 | VAPA (mammalian 2-hybrid construct) (from UniProt Q9WV55) K94E | – | – | 1.2 | 38 %fluc/Rluc | –
41 | VAPA (mammalian 2-hybrid construct) (from UniProt Q9WV55) K125A | – | – | 1.67 | 27 %fluc/Rluc | –
42 | VAPA (mammalian 2-hybrid construct) (from UniProt Q9WV55) K125E | – | – | 1.47 | 27 %fluc/Rluc | –
43 | VAPA (mammalian 2-hybrid construct) (from UniProt Q9WV55) K125E; R127E | – | – | – | – | other: Fold Change [2]: 0.84; response ([2]; parent: est. 140): 23 %fluc/Rluc
44 | VAPA (mammalian 2-hybrid construct) (from UniProt Q9WV55) K161E; H163E | – | – | – | – | other: Fold Change [2]: 2.43; response ([2]; parent: est. 140): 80 %fluc/Rluc
45 | VAPA (mammalian 2-hybrid construct) (from UniProt Q9WV55) M96A | – | – | 2.72 | 63 %fluc/Rluc | –
46 | VAPA (mammalian 2-hybrid construct) (from UniProt Q9WV55) N64A | – | – | 3.82 | 100 %fluc/Rluc | –
47 | VAPA (mammalian 2-hybrid construct) (from UniProt Q9WV55) R62A | – | – | 3.26 | 80 %fluc/Rluc | –
48 | VAPA (mammalian 2-hybrid construct) (from UniProt Q9WV55) R62E | – | – | 1.64 | 34 %fluc/Rluc | –
49 | VAPA (mammalian 2-hybrid construct) (from UniProt Q9WV55) R127A | – | – | 3.1 | 77 %fluc/Rluc | –
50 | VAPA (mammalian 2-hybrid construct) (from UniProt Q9WV55) R127E | – | – | 2.53 | 40 %fluc/Rluc | –
51 | VAPA (mammalian 2-hybrid construct) (from UniProt Q9WV55) R202E; R204E | – | – | – | – | other: Fold Change [2]: 2.78; response ([2]; parent: est. 140): 74 %fluc/Rluc
52 | VAPA (mammalian 2-hybrid construct) (from UniProt Q9WV55) T53A | – | – | 2.94 | 75 %fluc/Rluc | –
53 | VAPA (mammalian 2-hybrid construct) (from UniProt Q9WV55) T54A | – | – | 1.78 | 44 %fluc/Rluc | –
54 | VAPA (mammalian 2-hybrid construct) (from UniProt Q9WV55) V51A | – | – | 1.66 | 32 %fluc/Rluc | –
55 | VAPA (mammalian 2-hybrid construct) (from UniProt Q9WV55) V61A | – | – | 7.18 | 190 %fluc/Rluc | –
56 | B1 | – | – | – | – | stoichiometry N [3]: 2
57 | B2 | – | – | – | – | stoichiometry N [4]: 2
